Measurements reported in patent publication US20250326840A1 (QURE BIOTECHNOLOGY SHANGHAI, published 2025).

T1: QP093 (human SIRPα V1 ECD(E31-R370)-mFC(IgG2a)) (human)
T1 construct: also called Human SIRPα V1 recombinant protein (QP093)
T1 chain: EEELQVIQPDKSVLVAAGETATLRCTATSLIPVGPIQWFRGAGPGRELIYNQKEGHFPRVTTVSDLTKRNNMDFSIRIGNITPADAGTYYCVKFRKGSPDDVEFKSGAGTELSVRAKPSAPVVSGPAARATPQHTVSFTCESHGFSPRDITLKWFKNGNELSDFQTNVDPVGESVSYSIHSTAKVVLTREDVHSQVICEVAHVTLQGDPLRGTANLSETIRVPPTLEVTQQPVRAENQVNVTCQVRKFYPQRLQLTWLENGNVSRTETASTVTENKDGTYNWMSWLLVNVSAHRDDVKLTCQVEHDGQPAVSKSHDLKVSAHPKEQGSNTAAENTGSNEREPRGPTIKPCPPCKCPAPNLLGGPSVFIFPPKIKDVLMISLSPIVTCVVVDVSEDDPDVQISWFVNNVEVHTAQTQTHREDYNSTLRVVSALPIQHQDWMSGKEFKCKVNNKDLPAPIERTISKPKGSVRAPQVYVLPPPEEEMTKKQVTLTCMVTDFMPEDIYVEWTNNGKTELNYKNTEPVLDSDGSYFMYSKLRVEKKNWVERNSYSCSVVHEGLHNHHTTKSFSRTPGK

B1: QP37503751 (1H9 analog) (antibody, human IgG1, kappa, N297A, V domains shown)
VH: QVQLVQSGAEVKKPGASVKVSCKASGYTFTSYWITWVKQAPGQGLEWIGDIYPGSGSTNHIEKFKSKATLTVDTSISTAYMELSRLRSDDTAVYYCATGYGSSYGYFDYWGQGTLVTVSS
VL: DIQMTQSPSSLSASVGDRVTITCRASENIYSYLAWYQQKPGKAPKLLIYTAKTLAEGVPSRFSGSGSGTDFTLTISSLQPEDFATYYCQHQYGPPFTFGQGTKLEIKR
notes: also called hz1H9 hIgG1(N297A)
B2: QP250251 (18D5 analog) (antibody, human IgG4 S228P, kappa, V domains shown)
VH: QVQLQQPGAELVRPGSSVKLSCKASGYTFTSYWVHWVKQRPIQGLEWIGNIDPSDSDTHYNQKFKDKASLTVDKSSSTAYMQLSSLTFEDSAVYYCVRGGTGTMAWFAYWGQGTLVTVSA
VL: DVVMTQTPLSLPVSLGDQASISCRSSQSLVHSYGNTYLYWYLQKPGQSPKLLIYRVSNRFSGVPDRFSGSGSGTDFTLKISRVEAEDLGVYFCFQGTHVPYTFGSGTKLEIKR
notes: also called SIRPα antibody 18D5 from OSE
B3: QP026249 (KWAR23 analog) (antibody, human IgG4 S228P, kappa)
heavy: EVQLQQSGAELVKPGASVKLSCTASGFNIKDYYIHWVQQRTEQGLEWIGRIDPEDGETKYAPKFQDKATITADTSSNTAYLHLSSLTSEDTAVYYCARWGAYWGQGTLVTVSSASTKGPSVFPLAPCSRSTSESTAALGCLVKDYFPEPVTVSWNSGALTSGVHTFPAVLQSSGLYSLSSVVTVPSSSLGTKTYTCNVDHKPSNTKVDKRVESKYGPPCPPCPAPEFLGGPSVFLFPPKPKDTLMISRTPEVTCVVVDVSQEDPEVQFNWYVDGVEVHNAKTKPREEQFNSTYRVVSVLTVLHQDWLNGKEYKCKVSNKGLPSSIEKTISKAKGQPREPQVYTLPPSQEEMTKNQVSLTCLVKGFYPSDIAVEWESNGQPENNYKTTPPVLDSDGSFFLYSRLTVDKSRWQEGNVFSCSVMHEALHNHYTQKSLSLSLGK
light: QIVLTQSPAIMSASPGEKVTLTCSASSSVSSSYLYWYQQKPGSSPKLWIYSTSNLASGVPARFSGSGSGTSYSLTISSMEAEDAASYFCHQWSSYPRTFGAGTKLELKRTVAAPSVFIFPPSDEQLKSGTASVVCLLNNFYPREAKVQWKVDNALQSGNSQESVTEQDSKDSTYSLSSTLTLSKADYEKHKVYACEVTHQGLSSPVTKSFNRGEC
notes: also called KAWA23 analog; control antibody KWAR23 (QP026249), human IgG4
B4: QP256279 (antibody, human IgG4, V domains shown)
VH: QVQLVQSGAEVKKPGASVKVSCKASGYTFTNYWINWVRQAPGQGLEWIAMIDPSDSETHYNQIFKDRATLTTDTSTSTAYMELRSLRSDDTAVYYCAMDYGSLYAMDYWGRGTLVTVSS
VL: DIVLTQSPDSLAVSLGERATINCRASQSVRSSGYNWIFWYQQKPGQPPKLLIYLASNRDSGVPDRFSGSGSGTDFTLTISSLQAEDVAVYYCQHSRELPTFGQGTKLEIK
notes: Human IgG4 heavy constant region and kappa CL
B5: QP32700279 (antibody, human IgG1, kappa, L234A L235A, V domains shown)
VH: B4 VH
VL: DIVLTQSPDSLAVSLGERATINCRASQSVRSSGYNWIFWYQQKPGQPPKLLIYLASNRDSGVPDRFSGSGSGTDFTLTISSLQAEDVAVYYCQHSRELPTFGQGTKLEIKR
notes: also called SIRPα monoclonal antibody CHO71

How the values were obtained:
[1] = biological target: T2, human SIRPα V1 on U-937 cells (human, UniProt P78324 31-504); assay: FACS on U-937 cells
T2 construct: whole, on cells

[2] = biological target: T3, QP536 (SIRPαV7-mFC(mIgG2a)) (human); assay: ELISA, human SIRPα V7 recombinant protein (QP536) coated, HRP anti-human Fc detection
T3 construct: also called human SIRPα V7 recombinant protein (QP536)

[3] = biological target: T1, QP093 (human SIRPα V1 …); assay: ELISA, human SIRPα V1 recombinant protein (QP093) coated, HRP anti-human Fc detection
[4] = biological target: SIRPα V10 fusion Fc (mouse IgG2a) (human); assay: ELISA, SIRPα V10-mouse IgG2a Fc coated, anti-hFab detection; unit from the x axis; the curve is flat at the baseline, the fit is marked ambiguous (~)
[5] = biological target: SIRPα V3 fusion Fc (mouse IgG2a) (human); assay: ELISA, SIRPα V3-mouse IgG2a Fc coated, anti-hFab detection; unit from the x axis; the curve is flat at the baseline, the fit is marked ambiguous (~)
[6] = biological target: SIRPα V8 fusion Fc (mouse IgG2a) (human); assay: ELISA, SIRPα V8-mouse IgG2a Fc coated, anti-hFab detection
[7] = biological target: SIRPα V2 fusion Fc (mouse IgG2a) (human); assay: ELISA, SIRPα V2-mouse IgG2a Fc coated, anti-hFab detection; unit from the x axis Log(Conc.(nM))
[8] = biological target: SIRPα V10 fusion Fc (mouse IgG2a) (human); assay: ELISA, SIRPα V10-mouse IgG2a Fc coated, anti-hFab detection; unit from the x axis Log(Conc.(nM))
[9] = biological target: SIRPα V8 fusion Fc (mouse IgG2a) (human); assay: ELISA, SIRPα V8-mouse IgG2a Fc coated, anti-hFab detection; unit from the x axis Log(Conc.(nM))
[10] = biological target: QP003 (PDL1-his); assay: ELISA, QP003 (PDL1-his) captured on coated anti-his, anti-hFc detection; unit from the x axis; no rising curve is seen for it, the fit is marked ambiguous (~)
Sequence of QP003 (PDL1-his) (chain, as listed by the source limits assumed): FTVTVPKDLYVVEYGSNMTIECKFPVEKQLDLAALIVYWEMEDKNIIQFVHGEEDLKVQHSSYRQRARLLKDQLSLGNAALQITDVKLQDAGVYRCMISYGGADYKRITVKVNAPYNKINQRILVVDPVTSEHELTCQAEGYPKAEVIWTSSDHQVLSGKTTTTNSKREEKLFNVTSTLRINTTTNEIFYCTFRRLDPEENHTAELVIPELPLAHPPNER

[11] = biological target: SIRPα V3 fusion Fc (mouse IgG2a) (human); assay: ELISA, SIRPα V3-mouse IgG2a Fc coated, anti-hFab detection; unit from the x axis Log(Conc.(nM))
[12] = biological target: T4, QP094 (human SIRPα V1 ECD(E31-R370)-flag-his) (human, UniProt P78324 31-370); assay: SPR, Biacore 8K
T4 construct: the construct carries flag and his tags; also called SIRPαV1-flag-his; SIRPαV1-his (QP094)

[13] = biological target: T4, QP094 (human SIRPα V1 …); assay: SPR, Biacore
[14] = biological target: T5, QP096 (human SIRPα V2 ECD(E31-R370)-flag-his) (human); assay: SPR, Biacore
T5 construct: the construct carries flag and his tags; also called SIRPαV2-Flag-his; Human SIRPα V2 (QP096)
T5 sequence (chain, as listed by the source limits assumed): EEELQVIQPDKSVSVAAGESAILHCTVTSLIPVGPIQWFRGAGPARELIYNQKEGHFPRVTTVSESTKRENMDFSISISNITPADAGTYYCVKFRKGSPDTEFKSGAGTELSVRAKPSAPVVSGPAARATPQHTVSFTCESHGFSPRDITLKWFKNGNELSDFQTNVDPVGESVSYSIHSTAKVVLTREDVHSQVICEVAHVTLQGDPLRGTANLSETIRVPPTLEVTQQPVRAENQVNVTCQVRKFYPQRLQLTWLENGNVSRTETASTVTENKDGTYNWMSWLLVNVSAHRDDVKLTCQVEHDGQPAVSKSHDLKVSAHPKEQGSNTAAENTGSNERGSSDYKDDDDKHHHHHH

[15] = biological target: T6, QP002 (biotinylated in the blocking assays, sites not given); assay: blocking ELISA: QP001.2 (CD47) coated, biotin-QP002 (SIRPα-FC) mixed with the antibody, HRP-streptavidin; blocked ligand: CD47; unit from the x axis Log[Conc.(ug/ml)]
T6 construct: also called SIRPα-FC; Biotin-QP002

[16] = biological target: T7, QP095 (human SIRPα V2 ECD(E31-R370)-mFC(IgG2a)) (human); assay: ELISA, QP095 (SIRPα V2) coated, anti-hFab detection; unit from the x axis Log(Conc.(nM))
T7 construct: also called human SIRPα V2 recombinant protein (QP095)

[17] = biological target: T1, QP093 (human SIRPα V1 …); assay: ELISA, QP093 (SIRPα V1) coated, anti-hFab detection; unit from the x axis Log(Conc.(nM))
[18] = biological target: SIRPα V7 fusion Fc (mouse IgG2a) (human); assay: ELISA, SIRPα V7-mouse IgG2a Fc coated, anti-hFab detection; unit from the x axis Log(Conc.(nM))
[19] = biological target: T4, QP094 (human SIRPα V1 …); assay: binding ELISA, antigen coated
[20] = biological target: T5, QP096 (human SIRPα V2 …); assay: binding ELISA, antigen coated

Binder	EC50 [1]	EC50 [2]	EC50 [3]	EC50 [7]	EC50 [8]	EC50 [9]	EC50 [11]	Kd [13]	Kd [14]	IC50 [15]	EC50 [16]	EC50 [17]	EC50 [18]	EC50 [19]	EC50 [20]	further results
B1	0.158 nM	0.247 nM	0.177 nM													
B2	0.581 nM		0.438 nM													EC50 [4]: ~0.0554 nM; EC50 [5]: ~58.7 nM; binding result [6]: no binding (tested: about 67 nM (last point at log 1.8))
B3	0.21 nM	0.376 nM	0.442 nM	0.137 nM	0.137 nM	0.18 nM	0.135 nM	3.43 nM	13.6 nM	45.4 ng/mL	0.249 nM	0.237 nM	0.147 nM	5.29 ng/mL	3.31 ng/mL	EC50 [10]: ~0.000685 nM; Kd [12]: 4.69 nM; koff [12]: 0.00386 s⁻¹; kon [12]: 822000 M⁻¹ s⁻¹
B4				0.0682 nM	0.0682 nM	0.0851 nM	0.0635 nM	0.0354 nM	0.0446 nM	12.9 ng/mL			0.0707 nM	0.651 ng/mL	0.624 ng/mL	
B5	0.076 nM	0.176 nM	0.161 nM								0.16 nM	0.142 nM				
